In experiment [1] the target is T1, 4F11 scFv 10xHis.
T1 construct: also called 4F11-derived scFv with a His tag; anti-CD70 scFv 4F11
Kind of experiment: SPR (Biacore), clone 60 captured on anti-mouse Fc, 4F11_scFv_0166-P as analyte, 37 C, 1:1 Binding model; Table 3 prints 1.43 nM for this lot, the sheet prints 1.422E-9. On the procedure:
(§1) All SPR analysis was determined on a BIACore T200 SPR instrument (Cytiva, Marlborough, MA). For kinetic analysis and determination of simultaneous target antigen binding of CD70 anti-idiotype antibodies, mouse Fc was captured on a Biacore Series S CM4 sensor chip by amine-coupling of an anti-mouse Fc reagent (Mouse Antibody Capture Kit, Cytiva, BR100838) to the Biacore Series S CM4 sensor chip using a running buffer of 10 mM HEPES, 150 mM NaCl, 0.05% (v/v) Tween-20, pH 7.4 at 25° C. All surfaces of the sensor chip were activated with a 1:1 (v/v) mixture of 400 mM 1-Ethyl-3-(3-Dimethylaminopropyl) carbodiimide hydrochloride (EDC) and 100 mM N-hydroxysuccinimide (NHS) for 7 min at 10 μL/min. The anti-mouse Fc reagent was diluted to 30 μg/mL in 10 mM sodium acetate (pH 5.0) and injected on all four flow cells for 7 min at 10 μL/min, then all flow cells were blocked with 100 mM ethylenediamine in 200 mM Borate buffer pH 8.5 for 7 min at […].
(§2) All interaction experiments were performed at 37° C. using the same running buffer as described above supplemented with 1 mg/mL BSA. […] The dissociation was monitored for 10 min followed by regeneration of all flow cells with 10 mM glycine at pH 1.7 for 3 min. […]
(Surface plasmon resonance follows binding to a sensor surface in real time, without labels.)

The target in experiment [2] is T1, 4F11 scFv 10xHis. Briefly: SPR (Biacore T200), 37 C; antibody captured on anti-mouse Fc chip, 4F11 scFv 10xHis 1.2-100 nM as analyte; 1:1 Langmuir fit. The protocol:
as §1, §2

For experiment [3], the target named is T2, Biotin-hCD70 (human, UniProt P32970 39-193, limits assumed, biotinylated (site not stated)).
T2 construct: also called biotin-hCD70 complex; target antigen hCD70
T2 sequence (looked up): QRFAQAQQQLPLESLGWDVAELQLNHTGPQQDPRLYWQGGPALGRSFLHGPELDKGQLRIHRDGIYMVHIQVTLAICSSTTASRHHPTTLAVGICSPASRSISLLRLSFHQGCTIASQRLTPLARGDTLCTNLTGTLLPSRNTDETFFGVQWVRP
Briefly: SPR, Bt-hCD70 alone injected over clone 60 (hybridoma and recombinant) captured on anti-mouse Fc, then streptavidin.

Usually Kd stands for a measure of binding affinity in units of concentration. Read a low Kd as higher affinity. As a reminder, the koff is a measure of how fast the partners let go of each other. Read a low koff as a long-lived complex. What is called kon is a measure of how fast the partners come together.

“And” between values parts separate entries of the source, which are not always exact repeats. Equal entries are not always repeated.

T1 sequence (scFv, as listed by the source): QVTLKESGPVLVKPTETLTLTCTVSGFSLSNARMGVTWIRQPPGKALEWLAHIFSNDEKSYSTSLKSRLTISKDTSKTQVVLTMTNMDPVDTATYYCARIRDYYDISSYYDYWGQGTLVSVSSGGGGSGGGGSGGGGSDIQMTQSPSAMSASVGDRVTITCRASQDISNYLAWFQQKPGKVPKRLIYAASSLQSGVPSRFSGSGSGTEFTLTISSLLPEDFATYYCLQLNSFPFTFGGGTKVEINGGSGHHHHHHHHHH

B1: anti-idiotype antibody Clone 60 (IDA2002-1.60) (antibody, mouse IgG1, kappa, V domains shown)
VH: EVQLQQSGPELVKTGTSVKISCKASGYSITGYYIHWVKQSHGRSLDWIGSISFYNGATTYNQKFKGKVTFTVDTSSSTAYMQFNSLTSEDSAVYYCGRRGDDYDVFAYWGQGTLVTVSA
VL: DIVLTQSPASLAVSLGQRATISCRASESVDSYGYSFLHWYQQKPGQPPTLLIYRASNLESGIPARFSGSGSRTDFTLTINSVEADDVATYYCQQSNEDPWTFGGGTKLEIKR
notes: Mouse IgG1 kappa; also called clone 1.60; Clone 60-PE
For the molecule B1, in experiment [1], binding was characterised by a dissociation constant (Kd) of 1.42 nM. For the same molecule, in experiment [2], the dissociation constant (Kd) is 1.43 nM and 1.52 nM and 1.42 nM and 1.32 nM; the off-rate constant (koff) is 0.00343 s⁻¹ and 0.00359 s⁻¹ and 0.00312 s⁻¹ and 0.00348 s⁻¹; the on-rate (kon) was 2.7e+06 M⁻¹ s⁻¹ and 2.2e+06 M⁻¹ s⁻¹ (2×) and 2.4e+06 M⁻¹ s⁻¹; the t1/2 is 3.32 min and 3.37 min and 3.7 min and 3.22 min. Besides, in experiment [3], the binding result was “no binding (tested: 1 uM)”.
